Source: JP2017222678A (dated 2017)
Positions count from the first letter of the chain named.

T1: ヒトTFPI (human tissue factor pathway inhibitor; American Diagnostica) (human, UniProt P10646 29-304, limits assumed)
T1 construct: Coated on plates (ELISA) or amine-coupled to a CM5 chip (Biacore); also called h-TFPI; hTFPI
T1 sequence (looked up): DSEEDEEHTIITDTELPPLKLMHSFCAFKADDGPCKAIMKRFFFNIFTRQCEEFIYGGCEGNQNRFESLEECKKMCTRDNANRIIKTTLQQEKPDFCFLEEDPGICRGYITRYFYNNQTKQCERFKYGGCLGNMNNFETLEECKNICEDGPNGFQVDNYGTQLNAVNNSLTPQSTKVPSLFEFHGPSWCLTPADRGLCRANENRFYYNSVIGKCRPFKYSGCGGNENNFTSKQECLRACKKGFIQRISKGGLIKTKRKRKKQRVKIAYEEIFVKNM

B1: TP-3A3 (Fab, V domains shown)
VH: QVQLVESGGGLVQPGGSLRLSCAASGFTFNNNAISWVRQAPGKGLEWVSAINSSSSSTSYADSVKGRFTISRDNSKNTLYLQMNSLRAEDTAVYYCARGHHRGHSWASFIDYWGQGTLVTVSS
VL: DIELTQPPSVSVAPGQTARISCSGDNIGSKYVHWYQQKPGQAPVVVIYEDSDRPSGIPERFSGSNSGNTATLTISGTQAEDEADYYCQSWDKSEGYVFGGGTKLTVLG
notes: HuCAL Gold human Fab from E. coli TG1
B2: TP-2G2 (Fab, V domains shown)
VH: QVQLVESGGGLVQPGGSLRLSCAASGFTFSSYAMNWVRQAPGKGLEWVSAILSDGSSTSYADSVKGRFTISRDNSKNTLYLQMNSLRAEDTAVYYCARYPDWGWYTDVWGQGTLVTVSS
VL: DIELTQPPSVSVAPGQTARISCSGDNIRKFYVHWYQQKPGQAPVLVIYGTNKRPSGIPERFSGSNSGNTATLTISGTQAEDEADYYCQSYDSKFNTVFGGGTKLTVLG
notes: as for B1
B3: TP-2G9 (Fab, V domains shown)
VH: QVQLVESGGGLVQPGGSLRLSCAASGFTFNSYAMTWVRQAPGKGLEWVSAIKSDGSNTYYADSVKGRFTISRDNSKNTLYLQMNSLRAEDTAVYYCARNDSGWFDVWGQGTLVTVSS
VL: DIALTQPASVSGSPGQSITISCTGTSSDLGGFNTVSWYQQHPGKAPKLMIYSVSSRPSGVSNRFSGSKSGNTASLTISGLQAEDEADYYCQSYDLNNLVFGGGTKLTVLG
notes: as for B1
B4: TP-2D7 (Fab, V domains shown)
VH: QVQLQQSGPGLVKPSQTLSLTCAISGDSVSSNSAAWGWIRQSPGRGLEWLGLIYYRSKWYNDYAVSVKSRITINPDTSKNQFSLQLNSVTPEDTAVYYCARFGDTNRNGTDVWGQGTLVTVSS
VL: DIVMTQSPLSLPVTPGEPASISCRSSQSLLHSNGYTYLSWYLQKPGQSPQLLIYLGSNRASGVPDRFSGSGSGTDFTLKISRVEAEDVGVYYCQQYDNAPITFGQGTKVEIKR
notes: as for B1
B5: TP-2G4 (Fab, V domains shown)
VH: QVQLVESGGGLVQPGGSLRLSCAASGFTFSSYAMTWVRQAPGKGLEWVSNISYSGSNTYYADSVKGRFTISRDNSKNTLYLQMNSLRAEDTAVYYCARVGYYYGFDYWGQGTLVTVSS
VL: DIELTQPPSVSVAPGQTARISCSGDALRKHYVYWYQQKPGQAPVLVIYGDNNRPSGIPERFSGSNSGNTATLTISGTQAEDEADYYCQSYDKPYPILVFGGGTKLTVLG
notes: as for B1
B6: TP-3B3 (Fab, V domains shown)
VH: B5 VH with A33G, T35H, S54M, Y59N, V99G, G100L, Y101F, Y102P, Y103G, G104Y
VL: DIELTQPASVSVAPGQTARISCSGDNLRSKYAHWYQQKPGQAPVLVIYGDNNRPSGIPERFSGSNSGNTATLTISGTQAEDEADYYCSAYAMGSSPVFGGGTKLTVLG
notes: as for B1
B7: TP-3A2 (Fab, V domains shown)
VH: QVQLVESGGGLVQPGGSLRLSCAASGFTFSNYYLSWVRQAPGKGLEWVSGISYNGSSTNYADSVKGRFTISRDNSKNTLYLQMNSLRAEDTAVYYCARMWRYSLGADSWGQGTLVTVSS
VL: DIELTQPPSVSVAPGQTARISCSGDNIGSRYAYWYQQKPGQAPVVVIYDDSDRPSGIPERFSGSNSGNTATLTISGTQAEDEADYYCAAYTFYARTVFGGGTKLTVLG
notes: as for B1
B8: TP-2F9 (Fab, V domains shown)
VH: QVQLVESGGGLVQPGGSLRLSCAASGFTFYKYAMHWVRQAPGKGLEWVSGIQYDGSYTYYADSVKGRFTISRDNSKNTLYLQMNSLRAEDTAVYYCARYYCKCVDLWGQGTLVTVSS
VL: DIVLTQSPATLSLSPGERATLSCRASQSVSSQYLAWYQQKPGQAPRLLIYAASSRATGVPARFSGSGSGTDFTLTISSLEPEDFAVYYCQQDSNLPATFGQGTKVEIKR
notes: as for B1
B9: TP-3A4 (Fab, V domains shown)
VH: QVQLVESGGGLVQPGGSLRLSCAASGFTFSSYWMHWVRQAPGKGLEWVSSISYDSSNTYYADSVKGRFTISRDNSKNTLYLQMNSLRAEDTAVYYCARYGGMDYWGQGTLVTVSS
VL: DIELTQPPSVSVAPGQTARISCSGDNLRDKYASWYQQKPGQAPVLVIYSKSERPSGIPERFSGSNSGNTATLTISGTQAEDEADYYCSSYTLNPNLNYVFGGGTKLTVLG
notes: as for B1
B10: TP-2B9 (Fab, V domains shown)
VH: QVQLQQSGPGLVKPSQTLSLTCAISGDSVSSNSAAWGWIRQSPGRGLEWLGMIYHRSKWYNDYAVSVKSRITINPDTSKNQFSLQLNSVTPEDTAVYYCARYSSIGHMDYWGQGTLVTVSS
VL: DIQMTQSPSSLSASVGDRVTITCRASQSIRSYLAWYQQKPGKAPKLLIYKASNLQSGVPSRFSGSGSGTDFTLTISSLQPEDFAVYYCHQYSDSPVTFGQGTKVEIKR
notes: as for B1
B11: TP-2E3 (Fab, V domains shown)
VH: B10 VH with H55Y, Y102V, S103N, S104Q, I105Y, G106T, H107S, M108S
VL: DIALTQPASVSGSPGQSITISCTGTSSDIGGYNYVSWYQQHPGKAPKLMIYGVNYRPSGVSNRFSGSKSGNTASLTISGLQAEDEADYYCSSADKFTMSIVFGGGTKLTVLG
notes: as for B1
B12: TP-2H10 (Fab, V domains shown)
VH: B10 VH with S33G, M52F, H55R, D62S, Y102Q, S103D, S104G, I105M, H107G, Y110S
VL: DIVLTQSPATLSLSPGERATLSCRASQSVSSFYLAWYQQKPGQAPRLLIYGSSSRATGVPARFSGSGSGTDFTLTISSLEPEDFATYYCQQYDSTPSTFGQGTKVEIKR
notes: as for B1
B13: TP-2G5 (Fab, V domains shown)
VH: B10 VH with G37S, M52F, H55Y, Y102H, S103N, S104P, I105D, G106L, H107G, M108F
VL: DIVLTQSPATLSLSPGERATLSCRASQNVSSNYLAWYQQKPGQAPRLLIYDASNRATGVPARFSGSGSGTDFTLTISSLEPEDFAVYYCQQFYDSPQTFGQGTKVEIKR
notes: as for B1
B14: TP-2C1 (Fab, V domains shown)
VH: QVQLVESGGGLVQPGGSLRLSCAASGFTFSPYVMSWVRQAPGKGLEWVSSISSSSSNTYYADSVKGRFTISRDNSKNTLYLQMNSLRAEDTAVYYCARGDSYMYDVWGQGTLVTVSS
VL: DIELTQPPSVSVAPGQTARISCSGDSIGSYYAHWYQQKPGQAPVLVIYYDSKRPSGIPERFSGSNSGNTATLTISGTQAEDEADYYCQAYTGQSISRVFGGGTKLTVLG
notes: as for B1
B15: TP-2E5 (Fab, V domains shown)
VH: QVQLQQSGPGLVKPSQTLSLTCAISGDSVSSNSAAWSWIRQSPGRGLEWLGMIFYRSKWNNDYAVSVKSRITINPDTSKNQFSLQLNSVTPEDTAVYYCARVNANGYYAYVDLWGQGTLVTVSS
VL: DIQMTQSPSSLSASVGDRVTITCRASQPIYNSLSWYQQKPGKAPKLLIYGVSNLQSGVPSRFSGSGSGTDFTLTISSLQPEDFAVYYCLQVDNLPITFGQGTKVEIKR
notes: as for B1
B16: TP-2A2 (Fab, V domains shown)
VH: QVQLVESGGGLVQPGGSLRLSCAASGFTFSNNAMNWVRQAPGKGLEWVSTISYDGSNTYYADSVKGRFTISRDNSKNTLYLQMNSLRAEDTAVYYCARQAGGWTYSYTDVWGQGTLVTVSS
VL: DIELTQPPSVSVAPGQTARISCSGDNIRTYYVHWYQQKPGQAPVVVIYGDSKRPSGIPERFSGSNSGNTATLTISGTQAEDEADYYCQSYDSEADSEVFGGGTKLTVLG
notes: as for B1
B17: TP-2G7 (Fab, V domains shown)
VH: QVQLVESGGGLVQPGGSLRLSCAASGFTFNSYAMSWVRQAPGKGLEWVSNISSNSSNTYYADSVKGRFTISRDNSKNTLYLQMNSLRAEDTAVYYCARKGGGEHGFFPSDIWGQGTLVTVSS
VL: B16 VL with I27L, R28G, V45L, S51N, K52N, S89T, E93N, A94N, D95E, E97I
notes: as for B1

Target: T1, ヒトTFPI (human tissue factor pathway …)
Experiment: ELISA, Fab in bacterial lysate on coated human TFPI

Row | Binder | binding result
1 | B1 | binds
2 | B2 | binds
3 | B3 | binds
4 | B4 | binds
5 | B5 | binds
6 | B6 | binds
7 | B7 | binds
8 | B8 | binds
9 | B9 | binds
10 | B10 | binds
11 | B11 | binds
12 | B12 | binds
13 | B13 | binds
14 | B14 | binds
15 | B15 | binds
16 | B16 | binds
17 | B17 | binds
